# Results reported in article PMC314469, “Protein Interaction Networks by Proteome Peptide Scanning” (PLoS Biology, 2004).
# T1: Yfr024 SH3 (LSB3_YEAST), P43603
# T1 chain: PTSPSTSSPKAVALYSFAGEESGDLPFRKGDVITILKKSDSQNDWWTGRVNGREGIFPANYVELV
# T2: Boi1 SH3 (BOI1_YEAST), P38041
# T2 chain: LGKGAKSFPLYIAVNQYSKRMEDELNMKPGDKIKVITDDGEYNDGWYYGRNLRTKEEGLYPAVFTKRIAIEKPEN
# T3: Boi2 SH3 (BOI2_YEAST), P39969
# T3 chain: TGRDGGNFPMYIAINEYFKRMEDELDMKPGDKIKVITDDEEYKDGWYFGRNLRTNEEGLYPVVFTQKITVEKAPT
# T4: Rvs167 SH3 (RV167_YEAST), P39743
# T4 chain: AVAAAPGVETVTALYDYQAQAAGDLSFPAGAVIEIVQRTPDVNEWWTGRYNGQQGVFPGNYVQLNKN
# T5: Yhr016c SH3 (YSC84_YEAST), P32793
# T5 chain: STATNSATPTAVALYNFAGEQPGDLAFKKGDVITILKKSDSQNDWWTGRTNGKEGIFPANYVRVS
# Target: T1, Yfr024 SH3 (LSB3_YEAST), P43603
# Assay: SPOT array
row,Binder,"normalised SPOT signal, Boehringer light units (BLU); mean over the file's lines of this peptide"
1,ELLPVVPEKFLIAS [YOR273C 415-428],13.7
2,ENVPLYPSRRNIWE [YHR176W 81-94],15000
3,ENLPPSPVRAVNPL [YPR174C 153-166],156
4,ENKPFKPPRRVGSN [YBR073W 41-54],23100
5,ELPPIKPPRPTSTT [YBL007C 619-632],57000
6,EMIPSSPQRKSVSN [YBR098W 51-64],2140
7,ENAPANPSKALKVK [YHR108W 549-562],34.4
8,ENFPIVPLKSVAQD [YAL051W 638-651],377
9,ELPPTHPIRLGLAL [YDR099W 164-177],179

# Target: T2, Boi1 SH3 (BOI1_YEAST), P38041
# Assay: SPOT array
row,Binder,"normalised SPOT signal, Boehringer light units (BLU); mean over the file's lines of this peptide"
1,ELLPVVPEKFLIAS [YOR273C 415-428],90.2
2,ENVPLYPSRRNIWE [YHR176W 81-94],764
3,ENLPPSPVRAVNPL [YPR174C 153-166],85
4,ENKPFKPPRRVGSN [YBR073W 41-54],339
5,ELPPIKPPRPTSTT [YBL007C 619-632],54.9
6,EMIPSSPQRKSVSN [YBR098W 51-64],59
7,ENAPANPSKALKVK [YHR108W 549-562],21.4
8,ENFPIVPLKSVAQD [YAL051W 638-651],94
9,ELPPTHPIRLGLAL [YDR099W 164-177],77.1

# Target: T3, Boi2 SH3 (BOI2_YEAST), P39969
# Assay: SPOT array
row,Binder,"normalised SPOT signal, Boehringer light units (BLU); mean over the file's lines of this peptide"
1,ELLPVVPEKFLIAS [YOR273C 415-428],13.5
2,ENVPLYPSRRNIWE [YHR176W 81-94],19.2
3,ENLPPSPVRAVNPL [YPR174C 153-166],42.8
4,ENKPFKPPRRVGSN [YBR073W 41-54],3.6
5,ELPPIKPPRPTSTT [YBL007C 619-632],90.2
6,EMIPSSPQRKSVSN [YBR098W 51-64],37.3
7,ENAPANPSKALKVK [YHR108W 549-562],34.7
8,ENFPIVPLKSVAQD [YAL051W 638-651],9.5
9,ELPPTHPIRLGLAL [YDR099W 164-177],46.1

# Target: T4, Rvs167 SH3 (RV167_YEAST), P39743
# Assay: SPOT array
row,Binder,"normalised SPOT signal, Boehringer light units (BLU); mean over the file's lines of this peptide"
1,ELLPVVPEKFLIAS [YOR273C 415-428],15.1
2,ENVPLYPSRRNIWE [YHR176W 81-94],88.9
3,ENLPPSPVRAVNPL [YPR174C 153-166],28.7
4,ENKPFKPPRRVGSN [YBR073W 41-54],232
5,ELPPIKPPRPTSTT [YBL007C 619-632],1900
6,EMIPSSPQRKSVSN [YBR098W 51-64],220
7,ENAPANPSKALKVK [YHR108W 549-562],68
8,ENFPIVPLKSVAQD [YAL051W 638-651],125
9,ELPPTHPIRLGLAL [YDR099W 164-177],24.8

# Target: T5, Yhr016c SH3 (YSC84_YEAST), P32793
# Assay: SPOT array
row,Binder,"normalised SPOT signal, Boehringer light units (BLU); mean over the file's lines of this peptide"
1,ELLPVVPEKFLIAS [YOR273C 415-428],149
2,ENVPLYPSRRNIWE [YHR176W 81-94],4510
3,ENLPPSPVRAVNPL [YPR174C 153-166],0
4,ENKPFKPPRRVGSN [YBR073W 41-54],8330
5,ELPPIKPPRPTSTT [YBL007C 619-632],43100
6,EMIPSSPQRKSVSN [YBR098W 51-64],323
7,ENAPANPSKALKVK [YHR108W 549-562],209
8,ENFPIVPLKSVAQD [YAL051W 638-651],100
9,ELPPTHPIRLGLAL [YDR099W 164-177],203
